Consider 2 molecules from patent US8629107B2, “Genes and proteins associated with angiogenesis and uses thereof” (National Jewish Health, priority 2005, dated 2014).

One assay addresses T1, Notch1 (Mus musculus, UniProt Q01705).
T1 construct: expressed in transfected cells; host or cells: human kidney 293T cells, transient transfection (LT-1 liposomes)
Description: Notch1 processing assay in human kidney 293T cells. The following applies: co-expression with Notch1 and Jagged-1 in 293T cells. The class given is cell-based. On the procedure:
To monitor the effects of MAGP-2 on the processing and S3 cleavage of Notch1, human kidney 293T cells were transiently transfected in 6-well plates with LT-1 liposomes containing 0.5 μg/well of Notch1 (pCS2+mN1FL6MT), 0.5 μg/well Jagged-1 (pCS2+Jag1-6MT), or 1.5 μg/well of MAGP-2 (pcDNA3.1-MAGP-2/Myc-His) in all combinations. Forty-eight h post-transfection, the cells were washed with ice-cold PBS, lysed immediately in Buffer H/1% Triton X-100 [500 μl/well; (Schiemann et al, 2002)], and incubated on ice for 30 min. Afterward, insoluble material was removed by microcentrifugation and 100 μl of the resulting clarified extract was fractionated through 6% SDS-PAGE gels. The fractionated proteins were transferred electrophoretically to nitrocellulose and probed with anti-Myc 9E10 monoclonal antibodies (Covance, Princeton, N.J.) to visual Notch1 cleavage species.
Activation of Notch1 signaling involves three proteolytic processing events, termed S1, S2, and S3, that produce three distinct Notch1 fragments, termed TMIC, NEXT, and NICD, respectively (Mumm et al, 2000). […] The inventors tested this possibility by transiently transfecting human 293T cells with cDNAs encoding Myc-tagged versions of Notch1, Jagged-1, and MAGP-2 in all combinations, and subsequently monitored changes in NICD production and accumulation by immunoblot analyses using anti-Myc monoclonal antibodies. […]

The next assay has as its system MB114 cells. Description: cell proliferation, [3H]thymidine incorporation assay. In kind it is cell-based, murine. As to conditions: serum-starved MB114 cells stably expressing the transgene vs GFP, 24 h, 37° C. As for the experimental part:
The effect putative angiogenic agents had on MB114 cell activities were determined as follows: (i) cell proliferation using a [^3H]thymidine incorporation assay as described (Albig et al, 2006; Albig and Schiemann, 2004; Albig and Schiemann, 2005); (ii) cell invasion through Matrigel matrices using a modified Boyden-chamber assay as described (Albig et al, 2006; Albig and Schiemann, 2004; Albig and Schiemann, 2005); (iii) p38 MAPK phosphorylation using immunoblot analyses as described (Albig et al, 2006; Albig and Schiemann, 2004; Albig and Schiemann, 2005); (iv) angiogenic sprouting in rat tail collagen matrices as described (Albig et al, 2006; Albig and Schiemann, 2004); and (v) Hes1- and SBE-driven luciferase reporter gene assays as described (Albig et al, 2006; Albig and Schiemann, 2004; Albig and Schiemann, 2005).
FIG. 1A show results from an experiment in which serum-starved MB114 cells, stably expressing either GFP or various putative angiogenic agents, were stimulated in the absence or presence of either bFGF (50 ng/ml) or EGF (10 ng/ml) for 24 h at 37° C. Differences in MB114 cell DNA synthesis was determined by measuring [^3H]thymidine incorporation into cellular DNA. […] In this experiment, invasion of MB114 cells expressing either GFP or various putative angiogenic agents through synthetic basement membranes was determined over 48 h using a modified Boyden-chamber assay.
On the technique in general: Uptake of a labelled nucleoside into DNA is a usual measure of proliferation.

Assay [1] has as its system vessel formation and infiltration into Matrigel plugs. As to the kind of experiment: Matrigel plug implantation assay. The class given is in vivo, C57BL/6 mice. The following applies: 1 μg/ml with bFGF 50 ng/ml vs bFGF alone; subcutaneous, C57BL/6 mice, day 10. On the procedure: The effect of MAGP-2 on vessel formation and infiltration into Matrigel plugs implanted into genetically normal mice was determined as described (Albig et al, 2006). Briefly, phenol red-free Matrigel (BD biosciences, Bedford, Mass.) was mixed with PBS (diluent), bFGF (50 or 300 ng/ml; R&D Systems, Minneapolis, Minn.), or recombinant MAGP-2 (1 μg/ml) together with bFGF (50 ng/ml), and the resulting mixtures were injected twice subcutaneously in the ventral groin area (400 μl/injection) of C57BL/6 mice. The mice were sacrificed 10 days post-implantation and the Matrigel plugs were dissected, fixed overnight in 10% formalin, and sectioned in the National Jewish Histology Laboratory. Afterward, Masson's trichrome staining was performed to visualize infiltrating vessels, which were quantified under a light microscope by determining the average number of vessels present in 5 random fields (200× magnification). Only those fields that contained at least one vessel in the area underlying the skin were tallied. Two mice were used per experimental condition and this experiment was performed three times in its entirety. All animal studies were performed according to protocol procedures approved by the Animal Care and Use Committee at National Jewish Medical and Research Center.
The inventors tested this hypothesis by utilizing the Matrigel plug implantation assay, which monitors the ability of various angiogenic agents to alter vessel formation and infiltration into Matrigel plugs implanted subcutaneously into normal mice. […] MAGP-2 purity was monitored by coomassie staining, and by immunoblotting with anti-FLAG M2 monoclonal antibodies (FIG. 2A; right panel). rMAGP-2 (1 μg/ml) stimulated angiogenic sprouting of quiescent MB114 cell monolayers (FIG. 2A; left panel). […] Afterward, the Matrigel plugs were fixed, sectioned, and stained with Masson's trichrome to visualize infiltrating blood vessels (FIG. 2B; right panels; arrows denote blood vessels), which were quantified by manual counting under a light microscope. […]

T1 sequence (Q01705 19-2531): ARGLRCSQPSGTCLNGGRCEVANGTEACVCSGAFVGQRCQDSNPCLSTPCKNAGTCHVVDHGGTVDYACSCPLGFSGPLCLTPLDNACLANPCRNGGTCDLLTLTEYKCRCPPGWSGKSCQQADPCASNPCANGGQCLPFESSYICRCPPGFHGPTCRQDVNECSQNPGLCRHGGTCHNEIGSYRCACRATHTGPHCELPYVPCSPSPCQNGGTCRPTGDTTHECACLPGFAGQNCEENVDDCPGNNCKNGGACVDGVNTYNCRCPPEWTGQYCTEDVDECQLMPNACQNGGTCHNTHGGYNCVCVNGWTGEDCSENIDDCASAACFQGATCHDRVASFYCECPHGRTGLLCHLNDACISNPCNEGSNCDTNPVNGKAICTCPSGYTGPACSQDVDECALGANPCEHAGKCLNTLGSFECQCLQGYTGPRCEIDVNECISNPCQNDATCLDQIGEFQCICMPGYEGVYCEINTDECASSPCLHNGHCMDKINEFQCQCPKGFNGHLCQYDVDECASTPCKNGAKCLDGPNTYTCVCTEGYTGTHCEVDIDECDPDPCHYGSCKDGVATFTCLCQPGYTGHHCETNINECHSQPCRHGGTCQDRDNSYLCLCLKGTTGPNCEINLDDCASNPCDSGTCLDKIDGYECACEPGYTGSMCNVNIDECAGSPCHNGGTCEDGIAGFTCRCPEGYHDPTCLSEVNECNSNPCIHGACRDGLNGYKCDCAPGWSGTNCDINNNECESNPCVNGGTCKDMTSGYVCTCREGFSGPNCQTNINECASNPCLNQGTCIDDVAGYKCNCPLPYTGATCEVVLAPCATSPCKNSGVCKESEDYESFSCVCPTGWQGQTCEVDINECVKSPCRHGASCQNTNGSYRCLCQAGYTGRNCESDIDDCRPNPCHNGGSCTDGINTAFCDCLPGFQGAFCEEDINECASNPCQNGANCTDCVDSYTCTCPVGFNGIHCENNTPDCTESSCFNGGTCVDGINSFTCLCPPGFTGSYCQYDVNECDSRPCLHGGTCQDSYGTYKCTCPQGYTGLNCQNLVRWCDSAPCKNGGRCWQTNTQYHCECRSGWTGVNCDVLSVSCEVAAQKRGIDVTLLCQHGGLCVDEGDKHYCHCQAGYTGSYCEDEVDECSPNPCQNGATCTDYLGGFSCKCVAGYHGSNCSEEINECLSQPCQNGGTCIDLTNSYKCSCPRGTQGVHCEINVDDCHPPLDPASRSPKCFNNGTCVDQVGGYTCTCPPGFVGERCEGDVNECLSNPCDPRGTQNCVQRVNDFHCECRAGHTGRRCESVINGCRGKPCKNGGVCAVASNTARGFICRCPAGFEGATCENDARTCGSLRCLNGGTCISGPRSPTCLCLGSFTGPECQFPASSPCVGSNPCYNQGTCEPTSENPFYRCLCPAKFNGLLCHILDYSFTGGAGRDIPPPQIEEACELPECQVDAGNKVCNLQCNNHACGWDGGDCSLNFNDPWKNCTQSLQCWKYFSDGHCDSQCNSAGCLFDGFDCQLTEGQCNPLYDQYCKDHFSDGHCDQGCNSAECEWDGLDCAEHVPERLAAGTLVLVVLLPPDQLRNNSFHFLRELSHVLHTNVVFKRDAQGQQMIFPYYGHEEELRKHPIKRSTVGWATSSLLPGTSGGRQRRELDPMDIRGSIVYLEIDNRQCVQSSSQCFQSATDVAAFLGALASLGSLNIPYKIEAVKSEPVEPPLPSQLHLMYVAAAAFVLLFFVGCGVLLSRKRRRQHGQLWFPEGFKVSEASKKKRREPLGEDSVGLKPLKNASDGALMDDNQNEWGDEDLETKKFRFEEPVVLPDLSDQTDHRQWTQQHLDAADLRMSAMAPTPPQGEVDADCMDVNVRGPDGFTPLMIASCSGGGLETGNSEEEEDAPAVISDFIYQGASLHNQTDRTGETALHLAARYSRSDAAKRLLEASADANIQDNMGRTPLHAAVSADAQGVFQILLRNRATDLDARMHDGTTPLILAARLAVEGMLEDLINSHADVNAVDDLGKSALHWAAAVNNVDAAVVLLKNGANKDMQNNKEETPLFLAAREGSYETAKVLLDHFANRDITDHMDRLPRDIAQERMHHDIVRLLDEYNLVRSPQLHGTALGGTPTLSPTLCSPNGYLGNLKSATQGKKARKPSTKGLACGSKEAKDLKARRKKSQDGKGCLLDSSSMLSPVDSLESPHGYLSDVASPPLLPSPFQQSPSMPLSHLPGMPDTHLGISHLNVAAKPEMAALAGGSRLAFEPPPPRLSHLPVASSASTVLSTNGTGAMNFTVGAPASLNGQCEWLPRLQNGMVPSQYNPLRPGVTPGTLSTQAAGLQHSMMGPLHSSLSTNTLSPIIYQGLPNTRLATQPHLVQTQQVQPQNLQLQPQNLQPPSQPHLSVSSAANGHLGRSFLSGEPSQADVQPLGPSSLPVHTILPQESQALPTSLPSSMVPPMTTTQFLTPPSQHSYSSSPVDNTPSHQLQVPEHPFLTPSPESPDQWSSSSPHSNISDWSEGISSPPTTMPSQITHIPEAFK

B1: MAGP-2: secreted glycoprotein (25 kDa); stably expressed in MB114 cells by bicistronic retroviral transduction, Myc-His tagged (protein)
chain: QRGDDVPETFTDDPNLVNDPSTDDTALADITPSTDDLAGDKNATAECRDEKFACTRLYSVHRPVRQCVHQSCFTSLRRMYIINNEICSRLVCKEHEAMKDELCRQMAGLPPRRLRRSNYFRLPPCENMNLQRPDGL
modifications: left off: small tags and cut ends
notes: secreted glycoprotein (25 kDa); stably expressed in MB114 cells by bicistronic retroviral transduction, Myc-His tagged
Consider B1, for which the “ability of Jagged-1 to induce Notch1 cleavage and NICD production” value with Notch1 is on record as “reduced significantly”. In the assay with MB114 cells (EGF 10 ng/ml), the “proliferative response of MB114 cells to EGF ([3H]thymidine incorporation into cellular DNA)” value is recorded as “significantly enhanced”. Also, in the assay with MB114 cells (bFGF 50 ng/ml), the “proliferative response of MB114 cells to bFGF ([3H]thymidine incorporation into cellular DNA)” value is recorded as “significantly enhanced”.

B2: rMAGP-2: recombinant FLAG-tagged MAGP-2 purified from bacterial cell extracts by anti-FLAG chromatography (protein, UniProt Q9QZJ6 29-164, looked up)
Microfibrillar-associated …: QRGDDVPETFTDDPNLVNDPSTDDTALADITPSTDDLAGDKNATAECRDEKFACTRLYSVHRPVRQCVHQSCFTSLRRMYIINNEICSRLVCKEHEAMKDELCRQMAGLPPRRLRRSNYFRLPPCENMNLQRPDGL
modifications: FLAG tag
notes: recombinant FLAG-tagged MAGP-2 purified from bacterial cell extracts by anti-FLAG chromatography
As to B2, the “development and infiltration of vessels into Matrigel plugs” value in assay [1] is recorded as “significantly increased”.
